Data set [1] has as its target X. laevis 2×FLAG-TEV-NEDD1-3C-GCP3(1–240)/ALFA-MZT1 complex (X. laevis) (UniProt O73787). Briefly: mass photometry; Refeyn TwoMP; purified NEDD1-N-GCP3/MZT1 diluted to a final concentration below 40 nM; tetramer of the fusion/MZT1 protomer.
Data set [2] concerns the molecule itself. Briefly: cryo-EM structure; single particle analysis of the native γ-TuRC affinity-purified from X. laevis egg extract; particles with stoichiometric NEDD1/N-GCP3/MZT1 grapnel; AlphaFold2 models flexibly fitted (MDFF) into the density.
Data set [3] addresses T1, human Augmin TII N-clamp with HAUS8∆[1-138] (human, UniProt Q9NVX0 1-118; Q7Z4H7 1-269; Q99871 1-299; Q9BT25 139-248).
T1 construct: HAUS2, human, codons 1 to 118; HAUS6, human, codons 1 to 269; HAUS7, human, codons 1 to 299, followed by a TEV-EGFP-8xHis cleavable tag; HAUS8, human, codons 1 to 248 with the N-terminal truncation HAUS8∆[1-138]; The range 139-248 of HAUS8 is worked out from the printed limits 1 to 248 and the deletion 1-138; also called Augmin N-clamp; Augmin TII N-clamp∆H8N; source: E. coli BL21 CodonPlus-RIL, …
Briefly: pull-down; 25 μg recombinant EGFP-tagged Augmin TII N-clamp∆H8N added to lysate of HEK293 cells overexpressing POC5-HA or POC5^mut-HA, captured on GFP binder beads, 1 hr 4 °C; 50 mM Tris pH 7.5, 150 mM NaCl; HA blot. The following applies: one partner purified.

T1 sequence (Q9NVX0 1-118, chain 1 of 4): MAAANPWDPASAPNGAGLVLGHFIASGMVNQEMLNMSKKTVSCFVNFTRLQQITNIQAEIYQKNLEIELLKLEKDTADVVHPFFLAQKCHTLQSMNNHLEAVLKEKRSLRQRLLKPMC
T1 sequence (Q7Z4H7 1-269, chain 2 of 4): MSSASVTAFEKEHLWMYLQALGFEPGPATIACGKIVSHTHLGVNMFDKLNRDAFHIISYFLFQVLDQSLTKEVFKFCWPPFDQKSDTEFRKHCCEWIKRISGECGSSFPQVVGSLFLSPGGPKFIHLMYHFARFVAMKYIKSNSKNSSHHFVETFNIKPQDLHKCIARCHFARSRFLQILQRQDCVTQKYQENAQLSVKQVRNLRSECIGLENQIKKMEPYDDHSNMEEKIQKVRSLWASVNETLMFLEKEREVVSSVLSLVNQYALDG
T1 sequence (Q99871 1-299, chain 3 of 4): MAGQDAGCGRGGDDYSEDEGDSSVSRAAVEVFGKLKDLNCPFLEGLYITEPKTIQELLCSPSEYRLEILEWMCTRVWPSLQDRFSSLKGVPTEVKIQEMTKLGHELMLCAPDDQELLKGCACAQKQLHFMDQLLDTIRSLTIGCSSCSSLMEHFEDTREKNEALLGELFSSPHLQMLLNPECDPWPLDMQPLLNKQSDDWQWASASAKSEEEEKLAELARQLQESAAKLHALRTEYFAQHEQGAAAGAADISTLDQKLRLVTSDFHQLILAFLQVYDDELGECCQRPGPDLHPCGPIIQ
T1 sequence (Q9BT25 139-248, chain 4 of 4): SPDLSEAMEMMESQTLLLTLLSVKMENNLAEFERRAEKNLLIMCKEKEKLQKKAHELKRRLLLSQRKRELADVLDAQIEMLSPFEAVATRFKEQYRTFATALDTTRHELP

The stoichiometry N is the number of molecules, sites or subunits per partner or assembly. Regarding “X. laevis 2×FLAG-TEV-NEDD1-3C-GCP3(1–240)/ALFA-MZT1 complex (from UniProt O73787 1-240; Q5U4M5 1-72)”, the stoichiometry N in data set [1] is 4.

B1: NEDD1 (neural precursor cell expressed, developmentally down-regulated 1), X. laevis, endogenous (natural protein, X. laevis (endogenous in egg extract), UniProt A0A8J0Q0Y8 1-671, looked up)
chain: MESRGGGGRVRLPGTTMQDNIRFVSAGDDVKIWDYSSMTTVEQFNPHSASHPVSSLCWSSNNHFLVTASGSGDKIVVSSCKSKPVPLLELAEGKKQTCVNLNSSSQYVVSGGLDNTVNIWDLKSKRLHRSLKDHKDEVTCVTFNANDCYVASGSMSGEIILHNVTTNLSSTPFGHGSSQPIRHLKYSYVKKSLLGTVSDSGSVTLWDANSQNPYHVFESAHKAPASGICFSPVNDLLLVTVGLDKRIICYDVSSKILLQTVVAESPLTAVDFMPDGATLAVGSSRGKIYLYDLRMLSSPVKTVSAHKTSVQCIQFQHSNIYKSSKGPSSKSSILSTAVNKKPSTKTAAGGTQSANITKDLPPSAISSLPQPVMPVDSKVLRVNDDKSGFPRSTSLDIIPSKETDFAKTSDYKSIDSFGRSSLGDIFSPVRDDASHFRGAEDLSCKGNDLDYLPQFSTIPSSRRNPVGANTQGIHGSPLHLIIESPIKEEDESQDSELKTRKPQLLKQDFRESSSKPASVDQNNLNNSPINSVTRTPEAIEKTGHQILSQLKSDVPAHGTKIASPKVAATMSTQLASSLSEKIADTLASDRTGAPLTAIQINFIKNMIEETLDDFREACHRDIVNLQVEMIKQFHIQSSEIQMLLERYSLNESLVSEIEKLREENKRLRANF
notes: NEDD1, X. laevis, endogenous; NM_001094388.1 is printed for the cDNA of the recombinant constructs; also called NEDD1^C (its C-terminus); source: endogenous, X. laevis egg extract; co-purified with the γ-TuRC
Consider B1, for which the “stoichiometry N” value in data set [2] is 4.

B2: POC5^mut-HA (S224E, R227A, K228A, V231A, S234K, L235A) (natural protein, human, UniProt Q8NA72 1-575, looked up)
chain: MSSDEEKYSLPVVQNDSSRGSSVSSNLQEEYEELLHYAIVTPNIEPCASQSSHPKGELVPDVRISTIHDILHSQGNNSEVRETAIEVGKGCDFHISSHSKTDESSPVLSPRKPSHPVMDFFSSHLLADSSSPATNSSHTDAHEILVSDFLVSDENLQKMENVLDLWSSGLKTNIISELSKWRLNFIDWHRMEMRKEKEKHAAHLKQLCNQINELKELQKTFEIEIGAADEAISKASHAIGKQKEKIELMRTFFHWRIGHVRARQDVYEGKLADQYYQRTLLKKVWKVWRSVVQKQWKDVVERACQARAEEVCIQISNDYEAKVAMLSGALENAKAEIQRMQHEKEHFEDSMKKAFMRGVCALNLEAMTIFQNRNDAGIDSTNNKKEEYGPGVQGKEHSAHLDPSAPPMPLPVTSPLLPSPPAAVGGASATAVPSAASMTSTRAASASSVHVPVSALGAGSAATAASEEMYVPRVVTSAQQKAGRTITARITGRCDFASKNRISSSLAIMGVSPPMSSVVVEKHHPVTVQTIPQATAAKYPRTIHPESSTSASRSLGTRSAHTQSLTSVHSIKVVD
notes: POC5, human, with six point mutations in the predicted POC5-Augmin interface; source: HEK293 (Tet-On 3G), overexpressed, in lysate; not shown: HA, C-terminal, kept
Consider B2, for which the “fold reduction against wild-type” value in data set [3] is 3 fold.

(Values after paper PMC11903878, “Structural mechanisms for centrosomal recruitment and organization of the microtubule nucleator γ-TuRC” (Nature Communications, 2025).)
